Source: patent US6455314 (GENVEC, dated 2002)
Residue numbers refer to the chain shown, from its start. In names and notes the source's numbering stands.

Assays:
[1] = biological target: coxsackievirus and adenovirus receptor (CAR) (UniProt P78310); assay: cell-based or functional assay
[2] = biological target: T1, coxsackievirus and adenovirus receptor (CAR) (UniProt P78310 20-365); assay: cell-based or functional assay
T1 sequence: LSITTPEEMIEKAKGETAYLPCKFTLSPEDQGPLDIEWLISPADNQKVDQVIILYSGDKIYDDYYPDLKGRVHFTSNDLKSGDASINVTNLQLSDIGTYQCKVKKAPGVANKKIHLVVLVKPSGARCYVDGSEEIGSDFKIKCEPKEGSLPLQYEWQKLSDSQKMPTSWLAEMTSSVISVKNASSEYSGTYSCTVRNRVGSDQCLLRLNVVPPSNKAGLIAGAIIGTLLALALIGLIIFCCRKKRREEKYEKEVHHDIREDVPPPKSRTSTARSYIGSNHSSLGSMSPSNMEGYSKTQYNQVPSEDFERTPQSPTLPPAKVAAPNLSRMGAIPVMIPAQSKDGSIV

F3K (native) (from UniProt P04501 119-319) (ligand)
Competition (from IC50 of blocking Ad5-lacZ transduction of A549 cells, β-galactosidase activity) [1]: < 0.1%

Ad5-6 mutant Ad5 fiber knob, deletion DPE(474-476) (from UniProt P11818 387-581) (ligand)
Competition (from IC50 of blocking Ad5-lacZ transduction of A549 cells, β-galactosidase activity) [1]: < 20%

Ad5-10 mutant Ad5 fiber knob, deletion TAYT(489-492) (from UniProt P11818 387-581) (ligand)
Competition (from IC50 of blocking Ad5-lacZ transduction of A549 cells, β-galactosidase activity) [1]: < 0.1%

Ad5-7 mutant Ad5 fiber knob, deletion DPEY(474-477) (from UniProt P11818 387-581) (ligand)
Competition (from IC50 of blocking Ad5-lacZ transduction of A549 cells, β-galactosidase activity) [1]: < 0.1%

B1: native Ad5 fiber knob (ligand)
chain: GAITVGNKNNDKLTLWTTPAPSPNCRLNAEKDAKLTLVLTKCGSQILATVSVLAVKGSLAPISGTVQSAHLIIRFDENGVLLNNSFLDPEYWNFRNGDLTEGTAYTNAVGFMPNLSAYPKSHGKTAKSNIVSQVYLNGDKTKPVTLTITLNGTQETGDTTPSAYSMSFSWDWSGHNYINEIFATSSYTFSYIAQE
Competition (from IC50 of blocking Ad5-lacZ transduction of A549 cells, β-galactosidase activity) [2]: 100%

B2: Ad5-4 mutant Ad5 fiber knob K(417)G (ligand)
chain: B1 chain with K31G
Competition (from IC50 of blocking Ad5-lacZ transduction of A549 cells, β-galactosidase activity) [2]: < 0.1%

B3: Ad5-1 mutant Ad5 fiber knob S408E (ligand)
chain: B1 chain with S22E
Competition (from IC50 of blocking Ad5-lacZ transduction of A549 cells, β-galactosidase activity) [2]: < 0.1%

B4: Ad5-2 mutant Ad5 fiber knob P409A (ligand)
chain: B1 chain with P23A
Competition (from IC50 of blocking Ad5-lacZ transduction of A549 cells, β-galactosidase activity) [2]: < 1%

B5: Ad5-8 mutant Ad5 fiber knob Y(477)A (ligand)
chain: B1 chain with Y91A
Competition (from IC50 of blocking Ad5-lacZ transduction of A549 cells, β-galactosidase activity) [2]: < 0.1%

B6: Ad5-5 mutant Ad5 fiber knob K(420)A (ligand)
chain: B1 chain with K34A
Competition (from IC50 of blocking Ad5-lacZ transduction of A549 cells, β-galactosidase activity) [2]: < 0.1%

B7: Ad5-3 mutant Ad5 fiber knob RLNAEK(412-417)SLNGGG (ligand)
chain: B1 chain with R26S, A29G, E30G, K31G
Competition (from IC50 of blocking Ad5-lacZ transduction of A549 cells, β-galactosidase activity) [2]: < 0.1%

B8: Ad5-9 mutant Ad5 fiber knob EGTAY(487-491)GGGGG (ligand)
chain: B1 chain with E101G, T103G, A104G, Y105G
Competition (from IC50 of blocking Ad5-lacZ transduction of A549 cells, β-galactosidase activity) [2]: < 0.1%
